This data set concerns the molecule itself. Description: FRET or BRET; donor- (Rhodamine Red) and acceptor- (Atto647N) labelled peptides reconstituted together in 100 nm LUVs of C14:1, C16:1, C18:1 or C20:1 PC, without or with 30 mol% cholesterol; protein-to-lipid 1:1000; 50 mM HEPES, 150 mM KCl, pH 7.4. (BRET reads energy transfer from a luciferase to a nearby fluorophore.)

Ends that are not written are not given here.

B1: Syntaxin 4 TMD (residues 262-297; sx-4TM) (peptide, UniProt Q12846 262-297, looked up)
peptide: ALENQKKARKKKVLIAICVSITVVLLAVIIGVTVVG
modifications: also: N-terminus: Rhodamine Red or Atto647N
notes: syntaxin 4 transmembrane domain with juxtamembrane stretch, Homo sapiens, residues 262-297; also called syntaxin 4 truncation mutant; source: synthetic peptide (Fmoc solid phase synthesis)
Regarding B1, the binding result is “binds”.
